Biological target: SP-Dis-PyCter (Dis-PyCter carrying an amino terminal ER-translocation signal from D. discoideum PsA) (UniProt P02886)
Sequence (P02886 other isoform, or with tags, fused parts or gaps): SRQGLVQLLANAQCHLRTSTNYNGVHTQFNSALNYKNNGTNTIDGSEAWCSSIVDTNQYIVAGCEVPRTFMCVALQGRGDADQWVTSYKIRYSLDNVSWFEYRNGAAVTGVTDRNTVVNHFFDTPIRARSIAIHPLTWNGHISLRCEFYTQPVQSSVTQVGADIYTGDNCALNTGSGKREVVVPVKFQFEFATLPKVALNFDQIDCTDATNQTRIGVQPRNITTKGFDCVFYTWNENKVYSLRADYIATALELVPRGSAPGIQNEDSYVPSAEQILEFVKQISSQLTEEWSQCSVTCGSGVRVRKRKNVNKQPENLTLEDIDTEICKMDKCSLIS

human thrombin was tested, and the “size of the recombinant protein on Western blot after incubation with increasing thrombin (units/ml)” value was “the size of the recombinant protein decreased with increasing thrombin concentrations”.
